Changes are numbered by the printed parent chain. Bridge positions count the residues as written; N and C are the ends. Ends that are not written are not given here.
T1: recombinant cyno hepcidin (SEQ ID NO: 6) (cynomolgus monkey)
T1 construct: also called rcyno hepcidin; rcynoHepc
T1 peptide: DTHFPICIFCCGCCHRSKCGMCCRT

T2: hepcidin 20 (SEQ ID NO: 96) (human)
T2 construct: also called Hepc20; hepc20
T2 peptide: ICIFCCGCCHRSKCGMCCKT

T3: recombinant mouse hepcidin (SEQ ID NO: 80) (mouse, not fully specified)
T3 construct: also called murine hepcidin
T3 peptide: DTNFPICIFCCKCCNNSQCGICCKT

T4: recombinant human prohepcidin (SEQ ID NO: 102) (human)
T4 chain: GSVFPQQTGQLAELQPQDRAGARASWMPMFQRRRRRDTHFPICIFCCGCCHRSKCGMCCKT

B1: rat anti-human hepcidin monoclonal antibody R9 (antibody, V domains shown)
VH: QVTLKESGPGILQPSQTLSLTCSFSGFSLSTSGICVSWIRQPSGKGLEWLATICWEDSKGYNPSLKNRLTISKDTSNNQAFLKITSVDTADTAIYYCARPLNYGGYSELELDYWGQGVMVTVSS
VL: DIQMTQSPSLLSASVGDRVTLSCKASQNIYKYLNWYQQKLGEAPKLLIYYTNSLQTGIPSRFSGSGSGTDFTLTISSLQPEDVATYYCYQYNSGPTFGAGTKLELK
notes: Rat hybridoma monoclonal; also called mAb R9
B2: human hepcidin (SEQ ID NO: 9), mature, correctly folded (peptide)
peptide: DTHFPICIFCCGCCHRSKCGMCCKT
modifications: disulfide 10-13, 11-19, 14-22, 7-23; not fully specified
notes: 25-residue mature peptide with four disulfides (C7-C23, C10-C13, C11-C19, C14-C22); Recombinant (E. coli or CHO) or synthetic, by assay; also called rhHepc; shHepc
B3: murine anti-human hepcidin monoclonal antibody 2.7 (antibody, V domains shown)
VH: QIQLVQSGPELKKPGETVKISCKASGYTFTTYGMSWVKQAPGKGLKWMGWINTYSGVPTYADDFKGRFAFSLETSASTAYLQINNLKNEDTATYFCGRDHYYGEVAYWGQGTLVTVSA
VL: DIVLTQSPASLAVSLGQRATISCRASESVDSYGNSFMHWYQQKPGQPPKLLIYRASNLESGIPARFSGSGSRTDFTLTINPVEADDVATYYCHQSNEEYTFGGGTKLEIK
notes: Mouse hybridoma monoclonal; Murine IgG1 was used as its isotypic control; also called Ab2.7; Ab 2.7
B4: murine anti-human hepcidin monoclonal antibody Ab43 (antibody, V domains shown)
VH: QIQLVQSGPELKKPGETVKISCKASGYTFTTYGMSWVKQAPGKGLKWMGWINTYSGVPTYADDFKGRFAFSLETSASTAYLQINNLKNEDTATYFCASLWYYGRAFDYWGQGTTLTVSS
VL: B3 VL with D1N, R54L, I62V, N80D, V87A, H93Q, S95N, E98D, Y99R
notes: Mouse hybridoma monoclonal; also called mAB 43
B5: murine anti-human hepcidin monoclonal antibody 2.41 (antibody, V domains shown)
VH: B3 VH with Y54S, K65M, G97A, H100R
VL: B3 VL with Y32F, Q42L, T89I, H93Q
notes: Mouse hybridoma monoclonal

What was measured:
[1] = biological target: T1, recombinant cyno hepcidin (SEQ ID NO: 6); test: BIAcore solution equilibrium: fixed rcynoHepc + varied antibody, free rcynoHepc read on immobilized antibody surface
Method: The immobilization was performed at a flow rate 10 uL/min of running buffer (DPBS: Dulbecco's Phosphate Buffer Saline1, GIBCO 14190, with 0.005% BIAcore surfactant P-20) according to manufacturer's instructions. The carboxylated matrix of the sensor chip was first activated with a 100 ul injection of 1:1 mixture of EDC (75 mg/mL N-ethyl-N-(dimethylamine-propyl)carbodiimide in water, from BIAcore) and NHS (11.5 mg/mL N-hydroxysuccinimide in water, from BIAcore). 180 ul of antibodies (˜20 ug/ml in 10 mM Na-acetate pH4.0) was injected to immobilize onto the sensor chip at 30 uL/min. The excess reactive groups of the sensor chip were deactivated with an injection of 100 uL of ethanolamine (1.0M, from BIAcore).
The binding signal obtained is proportional to the free rcynoHepc in solution at equilibrium. The equilibrium dissociation constant (KD) was calculated from nonlinear regression analysis of the competition curves using a one-curve one-site homogeneous binding model (KinEx™ software, Sapidyne Instruments Inc., Boise Id.).

[2] = biological target: T2, hepcidin 20 (SEQ ID NO: 96); test: BIAcore: 1 nM antibody preincubated with 10 nM of this hepcidin form in solution, then run over immobilized rhHepc surface; % = free antibody still binding the surface (low % = strong binding to the solution form)
Method: (§1) Recombinant hepcidin was immobilized on a CM5 chip according to manufacturer's instructions at a flow rate 10 μL/min of running buffer (DPBS: Dulbecco's Phosphate Buffer Saline1X, GIBCO 14190, with 0.005% BIAcore surfactant P-20). The carboxylated matrix of the sensor chip was first activated with a 100 μL injection of 1:1 mixture of EDC (75 mg/mL N-ethyl-N-(dimethylamine-propyl)carbodiimide in water, from Biacore) and NHS (11.5 mg/mL N-hydroxysuccinimide in water, from Biacore). […] The excess reactive groups of the sensor chip were deactivated with an injection of 100 μL of ethanolamine (1.0M, from Biacore).
(§2) The binding signal obtained was proportional to the concentration of free antibody in solution at equilibrium.

[3] = biological target: B2; test: as above
Method: as §1, §2

[4] = biological target: B2; test: BIAcore: 1 nM antibody over immobilized rhHepc surface, no competitor (reference)
Method: as §1, §2

[5] = biological target: T3, recombinant mouse hepcidin (SEQ ID NO: …); test: BIAcore solution equilibrium: fixed antibody incubated with varied hepcidin, free antibody read on immobilized hepcidin chip
Method: (§3) Preparation of BIAcore chip surfaces: Immobilization of proteins to a BIAcore was performed according to manufacturer's instructions at a flow rate 10 μL/min of running buffer (DPBS: Dulbecco's Phosphate Buffer Saline1X, GIBCO 14190, with 0.005% Biacore surfactant P-20). The carboxylated matrix of the sensor chip was first activated with a 100 μL injection of 1:1 mixture of EDC (75 mg/mL N-ethyl-N-(dimethylamine-propyl)carbodiimide in water, from BIAcore) and NHS (11.5 mg/mL N-hydroxysuccinimide in water, from Biacore). […] The excess reactive groups of the sensor chip were deactivated with an injection of 100 μL of ethanolamine (1.0M, from Biacore).
(§4) Equilibrium binding analysis of antibody/hepcidin interactions on immobilized hepcidin surface: Fixed concentrations of antibody were incubated with various concentrations of hepcidin at room temperature for several hours before run through the immobilized hepcidin surface. After each sample injection, the surfaces were regenerated by injecting 30 μL […] glycine, pH1.5. The binding signal obtained is proportional to the free antibody in solution at equilibrium. The equilibrium dissociation constant (KD) was calculated from nonlinear regression analysis of the competition curves using a one or dual-curve one-site homogeneous binding model (KinExA™ software, Sapidyne Instruments Inc., Boise Id.).

[6] = biological target: B2; test: as above
Method: as §3, §4

[7] = biological target: B3; test: competitive binding assay: unlabeled human hepcidin against 0.25 nM biotinylated hepcidin for Ab2.7; standards in 5% BSA:I-block buffer
Method: (§5) Hepcidin levels were determined using hepcidin standards of varying concentrations (from 1.4-300 ng/ml) spiked into buffer (5% BSA:I-block), rabbit serum, or pooled human serum. […] 25 μl/well of mixed solution was added to Black half area plates coated with 1-2 μg/mL G×M capture antibody. 25 μL/well of biotinylated hepcidin was added at 0.25 nM. The plate was covered with plate film sealer and incubated at room temperature (25° C.) on a plate shaker at around ≦200 RPM for around 60 minutes. The plate was washed and then 50 μL/well of Poly horseradish peroxidase amplification reagent at 1:2000 was added. The plate was allowed to sit for 30 minutes and was then washed with a plate washer using PBS or KPL buffer 6 times. The plate was patted dry and a luminescent substrate (Femto or Pico) was quickly added. The plate was read with luminometer (ex: Lmax 340) for 1 second using Femto or Pico Substrate. […] (FIG. 30).

[8] = biological target: B3; test: competitive binding assay: unlabeled human hepcidin against 0.25 nM biotinylated hepcidin for Ab2.7; standards in rabbit serum
Method: as §5

[9] = biological target: T4, recombinant human prohepcidin (SEQ ID …); test: sandwich immunoassay: Ab2.7 capture, biotinylated rabbit anti-prohepcidin polyclonal detection; the prohepcidin concentration is varied (buffer curves)
Method: In order to reliably assess prohepcidin concentrations, a prohepcidin standard was measured after incubation for 60 minutes at 25° C. in a range of different buffers or sera.

[10] = biological target: T1, recombinant cyno hepcidin (SEQ ID NO: 6); test: KinExA solution equilibrium: fixed antibody + varied rcyno hepcidin, free antibody captured on rcyno hepcidin-coated beads
From the text: Reacti-Gel 6× beads (Pierce, Rockford, Ill.) were pre-coated with rcyno hepcidin (SEQ ID NO: 6) and blocked with BSA according to manufacturer's instructions. […] The amount of the bead-bound antibody was quantified by fluorescently (Cy5)-labeled goat anti-murine-IgG (H+L) antibody (Jackson Immuno Research, West Grove, Pa.). The binding signal is proportional to the concentration of free antibody at equilibrium. Dissociation equilibrium constant (KD) was obtained from nonlinear regression of the competition curves using a dual-curve one-site homogeneous binding model (KinExA™ Pro software).

[11] = biological target: T2, hepcidin 20 (SEQ ID NO: 96); test: BIAcore solution competition: 1 nM antibody preincubated with 10 nM antigen, then immobilized hepcidin surface; '-' = no inhibition by the solution form
Method: as §1, §2

Row | Binder | Kd [1] [nM] | Binding to Hepcidin Surface (%) [2] [%] | Binding to Hepcidin Surface (%) [3] [%] | Binding to Hepcidin Surface (%) [4] [%] | Kd [5] [nM] | Kd [6] [nM] | IC50 (read off the curve) [7] [ng/mL] | IC50 (read off the curve) [8] [ng/mL] | EC50 (read off the curve) [9] [ng/mL] | Kd [10] [nM] | binding result [11]
1 | B1 | ~10 | 88 | 79 | 100 | 20 | 21 |  |  |  |  | 
2 | B2 |  |  |  |  |  |  | ~7 | ~7 |  |  | 
3 | B3 |  | 3 | 2 | 100 | 40 | 0.11 |  |  | ~10 | ~0.016 | 
4 | B4 | ~0.1 | 100 | 11 | 100 | 14 | 0.56 |  |  |  |  | no binding (tested: 10 nM)
5 | B5 |  | 1 | 0 | 100 | 30 | 0.05 |  |  |  | ~0.009 | 
